Data as given in the RNAGym collection of RNA variant scans (doi:10.1073/pnas.2313332121).

B1: TPR t1 (parent)
chain: GACCAAUCUGCCCUCAGAGCUCGAGAACAUCUUCGGAUGCAGAGGAGGCAGGCUUCGGUGGCGCGAUAGCGCCAACGUCCUCAACCUCCAAUGCAUCCCACCACAUGAUGAUGCCUGAAGAGCCUUGGUUUUUUG

Variants of: B1
Assay: polymerase ribozyme fitness, log enrichment relative to wild type (log ratio); higher = more active; in vitro selection for triplet polymerase activity
Summary of the method: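 One round of in vitro selection, in triplicate, was applied to PCR-built, transcribed mutant libraries of each subunit of a heterodimeric triplet polymerase ribozyme. The steps were annealing with a biotinylated primer, partner subunit and triplets, incubation frozen at −7 °C, gel excision of extended constructs, streptavidin-bead capture and RT-PCR. Fitness is the logarithm, base 2, of genotype enrichment over wild-type enrichment from inverse-variance-weighted replicate averages of Illumina-sequenced inputs and outputs, keeping genotypes with ≥10 input reads and ≥1 read per output.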

Variant | polymerase ribozyme fitness (log ratio)
U14G A27G A29G G36C C40U C56A G63U C115U G122A | -6.64
U14A C22A G61C G65A C101U G120C | -7.89
U14G G61A | -1.48
U14C G58U C70U G71U | -3.19
C13U U55G C72G A100C A111U | -4.67
U14G A75U C94U U109C G127C U133G | -4.46
C13U U21G | 0.0383
C13U U21C | 0.405
U14A U33G A37U G42U G61C U109A | -6.69
C15A C114A | -4.98
C15A U59A U126A | -4.53
U14C C70G C82U U106A | -3.34
U14C G63C | -2.35
U14C C53A | -1.96
U14C C20U G58U C62G | -5.26
U14C G110A | -2.2
U14C C70A G117U | -5.57
U14C G93A | -2.47
C15A A41U U129A | -4.72
C13U U54A | 1.21
U14C C72A A111U | -6.13
U14A G71A | -2.77
C15A C88A | -1.56
C15A C88G | -2.59

Variant | polymerase ribozyme fitness (log ratio)
C15A C53U | -1.61
C15A C49A U55G A74C U81G A90G G117U | -3.52
C15A A91G C123A | -2.45
U14C A90C | -3.39
U14G A50C C56G C89U A95G | -3.5
C15A C53U A66U | -4.71
C15A G36U G61A | -3.38
U14A C15A C20U U55G | -3.71
U14A G36C G47A | -4.55
U14C C15U G39A C72G G117A | -1.31
C15A A37U G52C G63A U87A G120C | -4.33
U14A A16U A50U C72A U81C | -5.83
U14C G127A U129A | -3.26
C13U G117C | -2.68
C13U G77A | 0.00416
C15A U106G | -3.3
U14A A111C C115A | -5.18
C13U U92G | -2.48
C13U G113C | -1.31
U14G C56U C70A A83C C104G G110A U116A | -5.43
U14G G71U G93U A105U | -6.14
U14C G77C G113A | -5.53
C13U U112C G135U | 1.11
C13U U21C A27C U87G C114G | -6.59

Variant | polymerase ribozyme fitness (log ratio)
C15A A18U C53A U112C G127A | -5.64
C13U G71U C79G U81A | -3.02
C15A G61A C85U C98G A105G U109A C124U | -6.62
U14G G19A G42A C56A G93C | -5.15
U14C A111U | -4.43
C15A C124G | 0.792
U14C A18G C49G G61A G69A G113A | -5.84
C15A C20U G58A U87G A90C C114G | -4.17
U14C G71C | -2.35
C13U G128A | -1.67
C15A U87G A91C U112C G128C G135U | -5.85
U14A A29U | -3.64
U14G C15U A37U C56A A66C | -5.37
C15A G52C G63U G93U C97U | -5.64
U14G G71U | -2.33
C15A U59A C101A | -3.37
C15A G57U A91G C123A | -3.21
C15A | -1.85
U14A C94G | -3.05
C13U U21C A27U A37U A50G C56A G69U A111C | -4.81
U14A U59A A91G | -4.05
C15A G69A C104U | -4.06
C15A A111U | -5.13
U14G G48A C104A | -3.69

Variant | polymerase ribozyme fitness (log ratio)
U14A G61A A90C A91C | -4.3
U14A G120C | 0.0767
C15A G47U C123U | -2.56
U14A U78C | -2.86
C15A G77U G122A C123A | -2.19
C13U G110C | -3.69
C15A G63A G127C | -4.4
U14G G61U C86G C115G | -5.92
U14C C72U U78G C115U U116C | -3.05
C15A G42U C79U C115G C123A | -5.36
C15A A37U C76U | -2.8
C15A A37U C76G | -2.94
C15A A27C U55G A111U | -6.51
U14A G47A C102A A121C | -2.83
C15A C49U A90U A108G C114G | -6.22
C15A G17A C73G U112A | -4.93
C13U U14A C15G G63A U81G U109A | -7.58
C15A C123U | -1.1
C15A C123A | -1.02
U14G C40A | -2.06
U14A C40A A50G A74G G117U | -5.9
C15A A26G G44U C89A G120C | -5.42
U14A G36U A37U | -3.4
C15A C73G C123A | -2.17

Variant | polymerase ribozyme fitness (log ratio)
C15A G48C G52C | -4.44
U14C A84C | -2.42
C15A G63U A68G A111G | -7.51
U14G C62U | -1.97
C15A A118G | -2.6
C15A A37G G45U G93U U112C G122C C123G U125A | -5.64
C15A G113A | -3.63
C15A C70G | -3.97
U14G C89A C99G G113C C115U | -7.29
C15A A43U | -3.28
U14C C56G A119U | -3.8
C15A G39A G61A C123U | -0.349
C15A G69U C101A C123U G127A | -4.17
U14A G57C G58A G61A C89U G127U U129C U130C | -6.54
U14A C70U U126C G135U | -3.92
C15A G57U G61A U112C G113A U132C | -6.11
U14G G69U C85A | -2.32
U14A U32C C82A | -3.24
U14C A26G A50G G52C U106C G117A | -5.87
C13U U30C A46U | -5.06
C13U U54A G61A | -0.0236
U14G C15U C20G C70U C123A | -5.25
C15A C97A G120A U130A | -4.97
U14C C104U | -0.978

Variant | polymerase ribozyme fitness (log ratio)
C13U G71U | -0.508
C15A C94U G120C | -0.704
C15A C28G | -4.4
U14G C40G G69A | -3.52
U14G A37C G47A G110U G120U | -5.99
U14G U125A | -2.09
C15A A27C | -4.33
U14C C97U | -3.31
U14A A46C U81C C82U | -3.9
C15A U96A | -2.85
C15A G42A C56A G69U A100C U132A | -4.53
U14G C85G A95C C101G | -6.61
C13U G127C | -1.18
C15A A46C G52C A91U U129G | -6.42
C13U U14G A68G | -5.25
C13U G113U U125C | -1.89
C15A G69U C88U U125C | -3.27
U14A G42C G110C | -5.7
C15A G71A | -2.63
U14A G47U | -3.55
U14A G47C | -2.72
C13U G71C A95C | -1.52
U14A C15U C88U U96C G120U | -1.94
U14A C85U | -2.79

Variant | polymerase ribozyme fitness (log ratio)
U14A G44C G58U | -2.72
U14A G127U | -3.57
C15A C86A U129A | -4.12
C15A A18U C98U G107C G113U U125G | -6.57
U14C A18G U21C G69U A103C C115U | -5.98
C15A G36U A121G | 0.928
C15A C98U | -3.62
U14A A37U A84G | -2.93
U14A C49U G60C A103C U112A C123G | -6.39
U14G C53U C85A C88G | -3.97
C15A G42A C53A C101U | -4.53
U14G A27G G113A A121G U133A | -1.42
U14G A121C | 0.71
U14A A66U C98U | -4.97
U14G C72U G135U | -2.55
U14A C124A | -0.31
U14C U132C | -1.36
C15A G25C C34G C64U G113A | -7.48
C13U U33A U125A | -4.68
U14G C20A C73U C102U U133A | -4.53
U14G G45C | -3.41
U14A C70U | -1.67
C15A C62G U92C A121U | -4.25
